Results: the supplement of paper PMC7125110
± gives the standard error. For some of these results: Fewer inactive variants are shown than the library holds.

B1: glmS ribozyme (parent)
chain: AUAAAAGCGCCAGAACUACAGAAAUGUAGUUGACGAGGAGGAGGUUUAUCGAAUUUUCGGCGGAUGCCUCCAAA

Tests used:
Conditions in all cases: with glucosamine-6-phosphate
glucosamine-6-phosphate [1] = variants of: B1; test: kcat; higher = faster cleavage; RNA array
Method in brief: (§1)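 Weighted Michaelis–Menten fits across concentrations supplied kcat and KM, based on kobs from one- or two-exponential decay fits to normalised per-tile medians. The data came from barcoded ribozyme variants transcribed in situ by E. coli RNA polymerase on sequenced MiSeq chips and tracked at 37 °C by a hybridised Cy3 probe. Glucosamine-6-phosphate (40 μM to 10 mM) in HEPES/KCl/Mg(OAc)2 buffer was flowed in.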

glucosamine-6-phosphate [2] = variants of: B1; test: self-cleavage kobs at 40 uM GlcN6P; higher = faster cleavage; RNA array
Method in brief: as §1

glucosamine-6-phosphate [3] = variants of: B1; test: self-cleavage kobs at 640 uM GlcN6P; higher = faster cleavage; RNA array
Method in brief: as §1

glucosamine-6-phosphate [4] = variants of: B1; test: KM; higher = weaker cofactor use; RNA array
Method in brief: as §1

glucosamine-6-phosphate [5] = variants of: B1; test: self-cleavage kobs at 160 uM GlcN6P; higher = faster cleavage; RNA array
Method in brief: as §1

glucosamine-6-phosphate [6] = variants of: B1; test: self-cleavage kobs at 2500 uM GlcN6P; higher = faster cleavage; RNA array
Method in brief: as §1

glucosamine-6-phosphate [7] = variants of: B1; test: self-cleavage kobs at 10000 uM GlcN6P; higher = faster cleavage; RNA array
Method in brief: as §1

| Variant | kcat (glucosamine-6-phosphate [1]) [s⁻¹] | self-cleavage kobs at 40 uM GlcN6P (glucosamine-6-phosphate [2]) [s⁻¹] | self-cleavage kobs at 640 uM GlcN6P (glucosamine-6-phosphate [3]) [s⁻¹] | KM (glucosamine-6-phosphate [4]) [µM] | self-cleavage kobs at 160 uM GlcN6P (glucosamine-6-phosphate [5]) [s⁻¹] | self-cleavage kobs at 2500 uM GlcN6P (glucosamine-6-phosphate [6]) [s⁻¹] | self-cleavage kobs at 10000 uM GlcN6P (glucosamine-6-phosphate [7]) [s⁻¹] |
| --- | --- | --- | --- | --- | --- | --- | --- |
| A12G A42U A53C | < 1e-05 | < 1e-05 |  |  |  |  |  |
| A12U C50U C67G | 4.36e-05 ± 2.1e-05 |  | 6.16e-05 ± 2.1e-05 |  |  |  |  |
| A12C U69C | 0.0042 ± 0.0012 | 0.000133 ± 2.3e-05 | 0.000885 ± 0.0002 | 1520 ± 630 | 0.000486 ± 0.00013 | 0.00295 ± 0.00069 | 0.00396 ± 0.00074 |
| A12C U69G | 6.77e-05 ± 5.2e-06 |  | 6.7e-05 ± 8.9e-06 |  | 5.5e-05 ± 1.2e-05 | 7.6e-05 ± 9.1e-06 | 5.86e-05 ± 7.7e-06 |
| A12C U45C | 0.00344 ± 0.0011 | 3e-05 ± 1.2e-05 | 0.000289 ± 7.9e-05 | 7280 ± 3000 | 5.84e-05 ± 2.1e-05 | 0.000907 ± 0.00016 | 0.00194 ± 0.00049 |
| A12C C50G G66C | 0.000103 ± 2.8e-05 |  | 7.92e-05 ± 2.3e-05 |  | 0.00011 ± 3.2e-05 | 0.000103 ± 2.6e-05 |  |
| A12C A15C | 0.00209 ± 0.00064 | 6.78e-05 ± 1.4e-05 | 0.000451 ± 9e-05 | 2000 ± 880 | 0.000151 ± 2.5e-05 | 0.000976 ± 0.00019 | 0.00216 ± 0.00038 |
| A12C A15U | 0.00259 ± 0.00075 | 7.96e-05 ± 8.9e-06 | 0.00126 ± 0.0002 | 1430 ± 600 | 0.000208 ± 3.6e-05 | 0.0012 ± 0.00021 | 0.00271 ± 0.00031 |
| A12C A48C | 0.000151 ± 3.5e-05 |  | 3.34e-05 ± 1.1e-05 |  |  | 4.89e-05 ± 1.2e-05 | 0.000111 ± 1.2e-05 |
| A12C C68A | 2.22e-05 ± 4.9e-06 | < 1e-05 |  |  | < 1e-05 | 2.42e-05 ± 7.9e-06 |  |
| A12G C16U | 0.00221 ± 0.00096 |  | 0.000179 ± 2.1e-05 |  | 4.12e-05 ± 9.2e-06 | 0.00036 ± 4.1e-05 | 0.00119 ± 0.0001 |
| A12C U46A | 0.00133 ± 0.00029 |  | 0.000302 ± 4.8e-05 | 2440 ± 900 | 0.000101 ± 2.8e-05 | 0.000533 ± 9.6e-05 | 0.00122 ± 0.00017 |
| A12C U46G | 0.00332 ± 0.00078 | 8.74e-05 ± 1.3e-05 | 0.000761 ± 0.00012 | 1950 ± 600 | 0.000221 ± 3.6e-05 | 0.002 ± 0.00032 | 0.00278 ± 0.00064 |
| A12G G62C | < 1e-05 |  |  | 151 ± 74 |  |  | < 1e-05 |
| A12U G44C | 0.000244 ± 2.8e-05 |  | 5.33e-05 ± 1.1e-05 | 2040 ± 560 |  | 0.000168 ± 2.9e-05 | 0.000195 ± 2.3e-05 |
| A12U A36U C68A | 1.17e-05 ± 3.8e-06 |  |  |  |  |  |  |
| A12U U45G | 0.0202 ± 0.0044 | 0.000515 ± 6.4e-05 | 0.00546 ± 0.0011 | 1870 ± 530 | 0.00127 ± 0.00021 | 0.0134 ± 0.0027 | 0.0165 ± 0.0026 |

| Variant | kcat (glucosamine-6-phosphate [1]) [s⁻¹] | self-cleavage kobs at 40 uM GlcN6P (glucosamine-6-phosphate [2]) [s⁻¹] | self-cleavage kobs at 640 uM GlcN6P (glucosamine-6-phosphate [3]) [s⁻¹] | KM (glucosamine-6-phosphate [4]) [µM] | self-cleavage kobs at 160 uM GlcN6P (glucosamine-6-phosphate [5]) [s⁻¹] | self-cleavage kobs at 2500 uM GlcN6P (glucosamine-6-phosphate [6]) [s⁻¹] | self-cleavage kobs at 10000 uM GlcN6P (glucosamine-6-phosphate [7]) [s⁻¹] |
| --- | --- | --- | --- | --- | --- | --- | --- |
| A12U G43A | 0.000218 ± 2.6e-05 |  | 4.88e-05 ± 1e-05 | 2010 ± 540 |  | 0.000139 ± 1.8e-05 | 0.000173 ± 2.2e-05 |
| G13A U31G | 0.000328 ± 7.1e-05 |  |  |  |  | 6.35e-05 ± 1.5e-05 | 0.000153 ± 2.2e-05 |
| A12U U47G U57C | 0.000776 ± 0.00016 |  |  | 8650 ± 3200 |  | 0.000172 ± 4.9e-05 | 0.000417 ± 6.9e-05 |
| G13A G37U | 1.65e-05 ± 1.7e-06 | < 1e-05 |  | 621 ± 190 |  |  | < 1e-05 |
| A12G U56G | 0.000904 ± 9.3e-05 |  | 8.35e-05 ± 8.6e-06 | 6610 ± 950 |  | 0.00024 ± 2.2e-05 | 0.000553 ± 5.7e-05 |
| A12U A39C U56G | 0.00242 ± 0.00054 | 2.75e-05 ± 1e-05 | 0.000287 ± 0.00011 | 3430 ± 1000 | 0.000109 ± 1.8e-05 | 0.00138 ± 0.00027 | 0.00168 ± 0.00031 |
| A12C A14U | 0.000416 ± 3.2e-05 |  | 9.07e-05 ± 1e-05 | 2270 ± 350 | 3.61e-05 ± 9.3e-06 | 0.000202 ± 2.4e-05 | 0.000348 ± 2.9e-05 |
| A12C G13U C71G | 1.5e-05 ± 5.4e-06 |  |  |  |  |  |  |
| A12U G29U G59U C68G C70A | 3.34e-05 ± 1.4e-05 |  | 4.93e-05 ± 2.3e-05 |  |  |  |  |
| A12G A14U C58A G66C | 0.000245 ± 7.5e-05 |  |  |  |  |  | 8.77e-05 ± 2.7e-05 |
| A12U U47G C70G | 0.000218 ± 4.7e-05 | 6.36e-05 ± 1.3e-05 | 0.000234 ± 3.9e-05 |  | 7.51e-05 ± 1.5e-05 | 0.000217 ± 3.7e-05 | 0.000201 ± 3.3e-05 |
| C11U U45G | 0.000317 ± 6.8e-05 |  |  |  |  | 0.000172 ± 6.6e-05 | 0.000222 ± 4.3e-05 |
| A12U A64U | 0.00027 ± 2.8e-05 |  | 5.21e-05 ± 5.8e-06 | 2420 ± 540 |  | 0.000168 ± 1.8e-05 | 0.000211 ± 1.4e-05 |
| A12U A64C | 0.000692 ± 7.8e-05 |  | 0.000107 ± 1.6e-05 | 3580 ± 660 | 4.03e-05 ± 1.6e-05 | 0.000264 ± 3.9e-05 | 0.000531 ± 7.6e-05 |
| A12C G38C | 1.42e-05 ± 5.2e-06 |  |  |  |  |  |  |
| A12C G38U | < 1e-05 |  |  | 1280 ± 390 |  |  |  |
| A12G C71U | 0.00146 ± 0.0001 |  | 0.000183 ± 1.9e-05 | 4370 ± 470 | 5.89e-05 ± 1.1e-05 | 0.000525 ± 4.6e-05 | 0.00102 ± 8.1e-05 |
